Results on 15 molecules are retold here after patent US20260258115A1 (MAPP BIOPHARMACEUTICAL, published 2026).

Numbering of substitutions follows the chain as printed.

Experiment [1] concerns the target RSV F on RSV subtype A virus (RSV-A2) (Respiratory Syncytial Virus, subtype A, …, UniProt P03420 26-574). Description: cell-based or functional assay.
Experiment [2] deals with RSV postfusion F (postF), F ΔFP trimer, subtype A (Respiratory Syncytial Virus, subtype A, UniProt P03420 26-513). Description: BLI, IgG on anti-human IgG sensors. A general note: BLI is a label-free optical method that tracks binding on a fibre tip over time.
The target of experiment [3] is RSV prefusion F (preF), DS-Cav1 stabilized trimer, subtype A (Respiratory Syncytial Virus, subtype A, UniProt P03420 26-513). Description: BLI, IgG on anti-human IgG sensors, 100 nM antigen, apparent KD.
The target in experiment [4] is T1, RSV postfusion F, subtype A (postF, F ΔFP trimer) (Respiratory syncytial virus subtype A, UniProt P03420 26-513).
T1 construct: also called Postfusion subtype A
Description: BLI, IgG apparent affinity.

Experiment [5] addresses RSV prefusion F, subtype A (preF, DS-Cav1 trimer) (Respiratory syncytial virus subtype A, UniProt P03420 26-513). The experiment can be described thus: BLI, IgG apparent affinity.
The target of experiment [6] is T2, RSV postfusion F, subtype B (postF trimer) (Respiratory syncytial virus subtype B, UniProt P13843 26-513).
T2 construct: also called Postfusion subtype B
Description: BLI, IgG apparent affinity.

Experiment [7] addresses RSV F on recombinant mKate-RSV B 18537 virus (Respiratory syncytial virus B 18537, UniProt P13843 26-574). Description: cell-based or functional assay.
The target in experiment [8] is RSV F on recombinant mKate-RSV A2 virus (Respiratory syncytial virus A2, UniProt P03420 26-574). The experiment can be described thus: cell-based or functional assay.
Experiment [9] has as its target RSV prefusion F (preF), DS-Cav1 (Respiratory Syncytial Virus, UniProt P03420 26-513). The experiment can be described thus: BLI, IgG on anti-human IgG sensor.
Experiment [10] deals with RSV F on RSV-A2 virus (Respiratory Syncytial Virus (RSV-A2), UniProt P03420 26-574). Description: cell-based or functional assay.
The target of experiment [11] is RSV postfusion F (postF), F ΔFP (Respiratory Syncytial Virus, UniProt P03420 26-513). Description: BLI, IgG on anti-human IgG sensor, 100 nM antigen, 1:1 fit.

B1: ADI-41820 (antibody, V domains shown)
VH: EVQLVESGGGVVQPGRSLRLSCAVSGFTFSTYGMHWVRQTPGRGLEWVAVISYDGNHKYYADSVMGRFTISRDNSKDTLYLQVNSLRPEDSAVYYCAKDRIHCPNGVCYVHSSFYGLDVWGQGTTVTVSS
VL: QTVVTQEPSLTVSPGGTVTLTCGSSTGAVTSGHYPYWLQQKPGQAPRTLIYDTTNKDSWTPARFSGSLLGGKAALTLSGAQPEDEAQYYCLLSFNGPYWVFGGGTKVTVL
notes: also called Ab 926; Antibody Number 926
In the case of B1, in experiment [1], the “Neutralization IC50 (RSV subtype A)” value was greater than 25 µg/mL. Besides, in [2], the binding result was “no binding (tested: 100 nM antigen)”. The Kd in [3] was 64.9 nM.

B2: ADI-21085 (antibody, V domains shown)
VH: EVQLVETGGGLVKPGGSLRLSCEASGFNFRSYSMNWVRQAPGKGLEWVSSISASSSYINYADSVKGRFTISRDNSKNSLYLQMNSLRAEDTGVYYCARVLVHYYYGMDVWGQGTTVTVSS
VL: QSVLTQPPSVSAAPGQRVTISCTGTSSNIGAGYDVHWYQQLPGRAPKLLILGNNNRPSGVPDRFSGSKSGTSASLAITGLQAEDEADYYCQTYDKTLMEIFGGGTKLTVL
notes: also called Ab 330
On to B2, for which the binding result in [4] is “no binding”. Besides, the figures for the Kd in experiment [5] and in experiment [6] were 0.307 nM and 6.24 nM, respectively. For the same molecule, the “Neut IC50 (ug/ml) subtype B” value in [7] was 0.48 µg/mL. In experiment [8], the “Neut IC50 (ug/ml) subtype A” value came to 0.1 µg/mL.

B3: ADI-41458 (antibody, V domains shown)
VH: EVQLLESGSGLVKPSQTLSLTCAVSGDSLNSALYSWSWIRQPPGKGLEWIGYIYYSGSTYYNSSLKSRVTISIDRSKNQFSLNLNSVTAADTAVYYCASLQTGYSSGWFFDFWGPGTLVTVSS
VL: EIVLTQSPGTLSLSPGERATLSCRASQSVSRTYLTWYQQKPGQAPRLLIYGASNRATGIPDRFSGSGSGTDFTLTISRLEPEDFAVYYCQQYGSTPLFGQGTKVEIK
Regarding B3, in experiment [9], the binding result is on record as “no binding”. Further, the “Neutralization IC50 (RSV subtype A)” value in experiment [10] is greater than 25 µg/mL. In experiment [11], this molecule had a Kd of 0.549 nM.

B4: ADI-41836 (antibody, V domains shown)
VH: EVQLLESGAEVKKPGASVKVSCRASGYTFTSNTLHWVRQAPGQGLEWMGWINADNGNTRYSQKFQGRVTITRDTSANTAYMELSSLISEDTAVYYCAREWSGFWSGLNWFEPWGQGTLVTVSS
VL: QSVLTQPPSVSGAPGQRVTISCTGSSSNIGSGNDVHWYQQFPGTAPKVLIYVNSIRPSGVSDRFSGSKSGTSASLAITGLRAEDEADYYCQSYDSSLNGVAFGGGTKLTVL
Turning to B4, the “Neutralization IC50 (RSV subtype A)” value in experiment [1] was greater than 25 µg/mL. Also, in experiment [2], the binding result is “no binding (tested: 100 nM antigen)”. In [3], the Kd worked out at 5.74 nM.

B5: ADI-41838 (antibody, V domains shown)
VH: EVQLLESGGGVVQPGRSLRLSCAASEFTFRSYAMHWVRQAPGMGLEWVAVTPYDGISKYYADSVKGRFTISRDNSKNTLYLQMNSLRPEDTAVYYCARGFPEPITSWPGYFYAMDVWGQGTTVTVSS
VL: QSALTQPASVSGSPGQSITISCTGTTSDVGVYNYVSWYQQHPGKAPKLMIYDVSNRPSGVSNRFSGSKSGNTASLTISGLQAEDEADYYCSSYTNSDTPVVFGGGTKLTVL
notes: also called Ab 938; Antibody Number 938
Take B5: in [1], the “Neutralization IC50 (RSV subtype A)” value is greater than 25 µg/mL. Further, the binding result in [2] is recorded as “no binding (tested: 100 nM antigen)”. For the same molecule, in experiment [3], the Kd stood at 32.1 nM.

B6: ADI-41827 (antibody, V domains shown)
VH: EVQLSESAGGVVQPGGSLRLTCAASGFSFSTNGMHWVRQAPGKGLEWVAFIRYDGSKKYYAESVKGRFTISREDSNNTLYLQMNSLRPEDTAVYYCAKEDCSGGTCYHERNYYYYGMDVWGQGTTVTVSS
VL: QPVLTQPPSLPVSPGQTASITCSGDKLEYKYACWYQHKPGQSPVLVIYQDNKRPSGIPERFSGSNSGNTATLTISGTQPMDEADYYCQAWDSSTVVFGGGTKVTVL
As to B6, the “Neutralization IC50 (RSV subtype A)” value in [1] is greater than 25 µg/mL. Moreover, the binding result in experiment [2] was “no binding (tested: 100 nM antigen)”. For the same molecule, in experiment [3], the Kd turned out to be 0.186 nM.

B7: ADI-41462 (antibody, V domains shown)
VH: QVQLQQWGAGLVKPSETLSLSCDVYGGSFSGYYWTWIRQPPGKGLEWIGEINHSGRTNYNPSLKNRVTISVDTSKKQFSLKLSSVTAADTAVYFCARAPYYDIVTDYNITTAYFYGMDVWGQGTTVTVSS
VL: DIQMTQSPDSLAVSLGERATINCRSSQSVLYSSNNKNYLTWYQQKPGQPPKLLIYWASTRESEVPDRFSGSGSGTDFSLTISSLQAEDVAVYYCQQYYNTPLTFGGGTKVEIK
For the molecule B7, the binding result in [9] is recorded as “no binding”. Further, in experiment [10], the “Neutralization IC50 (RSV subtype A)” value is greater than 25 µg/mL. In experiment [11], this molecule showed a Kd of 1.54 nM.

B8: ADI-21091 (antibody, V domains shown)
VH: QVQLVQSGAEVKKPGESLRISCQYSAYGFSTYWISWVRQLPGKGLEWMGRIDPSDSHTTYSPSFQGHVTLSADKSISTVYLQWSSLKASDTAMYYCARHQEYSGSDLDSWGQGTLVTVSS
VL: QPVLTQPPSVSAAPGQRVTISCSGTRSNIGYNFVSWYQQLPGTAPKLLIYDNNKRPSGIPDRFSGSKSGTSATLAITGLQTGDEADYYCGTWDSSLSALFGGGTKVTVL
In the case of B8, the binding result in experiment [4] and in [6] was “no binding” throughout. Also, in [5], the Kd amounted to 0.749 nM. Also, the “Neut IC50 (ug/ml) subtype B” value in [7] is 0.92 µg/mL. The “Neut IC50 (ug/ml) subtype A” value in experiment [8] came out at 0.29 µg/mL.

B9: ADI-41465 (antibody, V domains shown)
VH: QVQLVQSGGGVVQPGRSLRLSCAASGFTFTSYDMHWVRQAPGKGLEWVAIISHDGSKQFYADSVKGRFTISRDNSKNTLYLQMNSLRPEDTAMYYCAKDTPSWGLLAEFFRHWGQGTLVTVSS
VL: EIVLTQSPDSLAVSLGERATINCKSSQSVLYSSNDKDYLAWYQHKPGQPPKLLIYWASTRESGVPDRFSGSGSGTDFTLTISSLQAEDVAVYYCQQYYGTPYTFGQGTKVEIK
Regarding B9, the binding result in experiment [9] was “no binding”. Also, the “Neutralization IC50 (RSV subtype A)” value in [10] was greater than 25 µg/mL. Further, the Kd in [11] was 1.73 nM.

B10: ADI-41815 (antibody, V domains shown)
VH: EVQLLESGGGLVKPGGSLRLSCGASGFTFSTSSFNWVRQAPGKGLEWVSSISSTSSYVFYADSVKGRFTVSRDNAQNSLYLQMNSLRAEDTAVYYCARARGVGATIGFDYWGQGTLVTVSS
VL: not shown
notes: also called Ab 922; Antibody Number 922
B10: the “Neutralization IC50 (RSV subtype A)” value in experiment [1] was greater than 25 µg/mL. Also, the binding result in experiment [2] is listed as “no binding (tested: 100 nM antigen)”. Besides, in experiment [3], the Kd is 3.21 nM.

B11: ADI-41839 (antibody, V domains shown)
VH: EVQLLESGGGVVQPGGSLRLSCVASGFTFSAYGMHWVRQAPGKGPEWVAMTRSDGNKIYYADSVKGRFTISRDDSKNTLYLEMNSLRPDDTAVYFCAKEVGYGGNSLHYWGQGTLVTVSS
VL: SYELIQPPSVSVAPGQTAKITCGGNNIGSKSVHWYQQKPGQAPVLVVFDDSDRPSGIPERFSGSNSGNTATLTISRVEAGDEADYYCQVWDFSSDLWVFGGGTKLTVL
notes: also called Ab 939; Antibody Number 939
As for B11, the “Neutralization IC50 (RSV subtype A)” value in experiment [1] is greater than 25 µg/mL. In experiment [2], the binding result was “no binding (tested: 100 nM antigen)”. Moreover, in [3], the Kd is 7.88 nM.

B12: ADI-41833 (antibody, V domains shown)
VH: EVQLLESGGGLVQPGGSLRLSCAASRFTFSTYAMSWVRQAPGKGLEWVSSISGSGDKTFYTDSVKGRFTISRDNSKNTLYLQMNSLRAEDTAVYYCARESYYELWTGTYPGWELDYWGQGTLVTVSS
VL: DIQLTQSPSSLSASVGDRVTITCRASQDISNYLAWYQQKPGKPPKLLIYAASILESGAPSRFSGSGSGTDFTLTISSLQPEDVGTYYCQKSNSAPRPFGQGTKVEIK
With B12, the “Neutralization IC50 (RSV subtype A)” value in experiment [1] was determined as 0.02 µg/mL. Further, the binding result in experiment [2] was “no binding (tested: 100 nM antigen)”. Further, the Kd in [3] came out at 0.723 nM.

B13: ADI-41837 (antibody, V domains shown)
VH: QVQLVQSGAEVKKPGASVKVSCKASGYTFTSYGISWVRQAPGQGLEWMGWISAYSGDTDYAQKLQGRVTMTTDTATSTAYMELRSLRSDDTAVYYCARDAHCSSTNCYIDLGGAPVDYWGQGTLVTVSS
VL: DIVLTQTPLSLSVTLGQPASISCRSSQSLVYIDGYTYLNWFQQRPGQSPRRLIYKVSNRDSGVPDRFSGSGSGTDFTLKISRVEAEDVGVYYCMQGAHWPWTFGQGTKVEIK
notes: also called Ab 937; Antibody Number 937
Regarding B13, in experiment [1], the “Neutralization IC50 (RSV subtype A)” value was greater than 25 µg/mL. Moreover, the binding result in experiment [2] is reported as “no binding (tested: 100 nM antigen)”. In addition, in experiment [3], the Kd was determined as 7.09 nM.

B14: ADI-43641 (antibody, V domains shown)
VH: EVQLVESGGGLVKPGGSLRLSCAASGFTFSDYYMSWIRQAPGKGLEWVSYISSSSSYTNYADSVKGRFTISRDNAKNSLYLQMNSLRAEDTAVYYCARDFSGQWLVLGYGMDVWGQGTTVTVSS
VL: QSVVTQPPSVSGAPGQRVTISCTGSSSNIGAGYDVHWYQQLPGTAPKLLIYGNSNRPSGVPDRFSGSKSGTSASLAITGLQAEDEADYYCQSYDSSLSGPVFGGGTKLTVL
notes: also called Ab 946; Antibody Number 946
As to B14, in [1], the “Neutralization IC50 (RSV subtype A)” value was greater than 25 µg/mL. In addition, the binding result in experiment [2] was “no binding (tested: 100 nM antigen)”. In addition, in experiment [3], the Kd was found to be 37.5 nM.

B15: ADI-43642 (antibody, V domains shown)
VH: EVQLLESGGGLVKPGGSLRLSCAASGFTFSSYSMNWVRQAPGKGLEWVSSISSSSSYIYYADSVKGRFTISRDNAKNSLYLQMNSLRAEDTAVYYCARDGADSSYYYYMDVWGKGTTVTVSS
VL: B14 VL with S2A, P100S
notes: also called Ab 947; Antibody Number 947
For B15, the “Neutralization IC50 (RSV subtype A)” value in [1] was greater than 25 µg/mL. The binding result in [2] is “no binding (tested: 100 nM antigen)”. Besides, the Kd in experiment [3] turned out to be 43.2 nM.
